Assay results taken from article PMC7018383.

Biological target: β2B (UniProt Q08289)
Experiment: flow-cytometric FRET 2-hybrid

Rad, sequence (O88667 whole entry, looked up, change not shown): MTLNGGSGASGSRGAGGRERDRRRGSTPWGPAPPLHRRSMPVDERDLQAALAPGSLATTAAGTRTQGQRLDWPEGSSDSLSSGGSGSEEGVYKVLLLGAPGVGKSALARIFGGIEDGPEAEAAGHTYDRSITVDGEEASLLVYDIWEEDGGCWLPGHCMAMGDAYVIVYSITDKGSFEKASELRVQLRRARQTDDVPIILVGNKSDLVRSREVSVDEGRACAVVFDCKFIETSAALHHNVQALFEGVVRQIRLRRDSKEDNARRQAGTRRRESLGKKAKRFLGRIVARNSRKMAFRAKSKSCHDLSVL

Substance: Rad (from UniProt O88667) 4-SA Rad with PKAcat
- other: Kd,EFF (FRET 2-hybrid, relative) (reference: WT Rad with PKAcat, sites S25,S38,S272,S300): stronger; reference 145231 ± 3084

Substance: Rad (from UniProt O88667) 4-SA Rad, PKAcat co-expressed
- other: Kd,EFF (FRET 2-hybrid, relative) (reference: 4-SA Rad, no PKAcat): same; reference 4346± 197

Substance: Rad (from UniProt O88667) WT Rad, PKAcat co-expressed
- other: Kd,EFF (FRET 2-hybrid, relative) (reference: WT Rad, no PKAcat, sites S25,S38,S272,S300): weaker; reference 7957 ± 418
